Results on two molecules are retold here after patent US20260266848A1, “COMPOSITIONS AND METHODS FOR DIAGNOSING AND TREATING DYSTONIA” (Duke University, priority 2023, published 2026).

The data set has as its system DYT1 patient plasma derived EVs. In words: Plasma-derived EV proteomics (ExoQuick ULTRA, DIA LC/MS/MS), DYT1 vs Healthy Controls. Set-up: species or system human. As to conditions: Hs. Plasma EVs (DYT1/WT); significance of genotype difference. The essentials: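 Quantitative LC/MS/MS in data-independent acquisition on an Orbitrap Astral (4 m/z windows over m/z 380-980, HCD 27%), 500 ng of each EV sample. EVs were isolated from plasma by ExoQuick ULTRA, separated by EvoSep SPD30 gradient at 50 C.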

B1: SEC31A (protein, UniProt O94979 1-1220, looked up)
Protein transport protein …: MKLKEVDRTAMQAWSPAQNHPIYLATGTSAQQLDATFSTNASLEIFELDLSDPSLDMKSCATFSSSHRYHKLIWGPYKMDSKGDVSGVLIAGGENGNIILYDPSKIIAGDKEVVIAQNDKHTGPVRALDVNIFQTNLVASGANESEIYIWDLNNFATPMTPGAKTQPPEDISCIAWNRQVQHILASASPSGRATVWDLRKNEPIIKVSDHSNRMHCSGLAWHPDVATQMVLASEDDRLPVIQMWDLRFASSPLRVLENHARGILAIAWSMADPELLLSCGKDAKILCSNPNTGEVLYELPTNTQWCFDIQWCPRNPAVLSAASFDGRISVYSIMGGSTDGLRQKQVDKLSSSFGNLDPFGTGQPLPPLQIPQQTAQHSIVLPLKKPPKWIRRPVGASFSFGGKLVTFENVRMPSHQGAEQQQQQHHVFISQVVTEKEFLSRSDQLQQAVQSQGFINYCQKKIDASQTEFEKNVWSFLKVNFEDDSRGKYLELLGYRKEDLGKKIALALNKVDGANVALKDSDQVAQSDGEESPAAEEQLLGEHIKEEKEESEFLPSSGGTFNISVSGDIDGLITQALLTGNFESAVDLCLHDNRMADAIILAIAGGQELLARTQKKYFAKSQSKITRLITAVVMKNWKEIVESCDLKNWREALAAVLTYAKPDEFSALCDLLGTRLENEGDSLLQTQACLCYICAGNVEKLVACWTKAQDGSHPLSLQDLIEKVVILRKAVQLTQAMDTSTVGVLLAAKMSQYANLLAAQGSIAAALAFLPDNTNQPNIMQLRDRLCRAQGEPVAGHESPKIPYEKQQLPKGRPGPVAGHHQMPRVQTQQYYPHGENPPPPGFIMHGNVNPNAAGQLPTSPGHMHTQVPPYPQPQPYQPAQPYPFGTGGSAMYRPQQPVAPPTSNAYPNTPYISSASSYTGQSQLYAAQHQASSPTSSPATSFPPPPSSGASFQHGGPGAPPSSSAYALPPGTTGTLPAASELPASQRTGPQNGWNDPPALNRVPKKKKMPENFMPPVPITSPIMNPLGDPQSQMLQQQPSAPVPLSSQSSFPQPHLPGGQPFHGVQQPLGQTGMPPSFSKPNIEGAPGAPIGNTFQHVQSLPTKKITKKPIPDEHLILKTTFEDLIQRCLSSATDPQTKRKLDDASKRLEFLYDKLREQTLSPTITSGLHNIARSIETRNYSEGLTMHTHIVSTSNFSETSAFMPVLKVVLTQANKLGV
Take B1: the “-LogP” value worked out at 1.85.

B2: ANO6 (protein, UniProt Q4KMQ2 1-910, looked up)
Anoctamin-6: MKKMSRNVLLQMEEEEDDDDGDIVLENLGQTIVPDLGSLESQHDFRTPEFEEFNGKPDSLFFNDGQRRIDFVLVYEDESRKETNKKGTNEKQRRKRQAYESNLICHGLQLEATRSVLDDKLVFVKVHAPWEVLCTYAEIMHIKLPLKPNDLKNRSSAFGTLNWFTKVLSVDESIIKPEQEFFTAPFEKNRMNDFYIVDRDAFFNPATRSRIVYFILSRVKYQVINNVSKFGINRLVNSGIYKAAFPLHDCKFRRQSEDPSCPNERYLLYREWAHPRSIYKKQPLDLIRKYYGEKIGIYFAWLGYYTQMLLLAAVVGVACFLYGYLNQDNCTWSKEVCHPDIGGKIIMCPQCDRLCPFWKLNITCESSKKLCIFDSFGTLVFAVFMGVWVTLFLEFWKRRQAELEYEWDTVELQQEEQARPEYEARCTHVVINEITQEEERIPFTAWGKCIRITLCASAVFFWILLIIASVIGIIVYRLSVFIVFSAKLPKNINGTDPIQKYLTPQTATSITASIISFIIIMILNTIYEKVAIMITNFELPRTQTDYENSLTMKMFLFQFVNYYSSCFYIAFFKGKFVGYPGDPVYWLGKYRNEECDPGGCLLELTTQLTIIMGGKAIWNNIQEVLLPWIMNLIGRFHRVSGSEKITPRWEQDYHLQPMGKLGLFYEYLEMIIQFGFVTLFVASFPLAPLLALVNNILEIRVDAWKLTTQFRRLVPEKAQDIGAWQPIMQGIAILAVVTNAMIIAFTSDMIPRLVYYWSFSVPPYGDHTSYTMEGYINNTLSIFKVADFKNKSKGNPYSDLGNHTTCRYRDFRYPPGHPQEYKHNIYYWHVIAAKLAFIIVMEHVIYSVKFFISYAIPDVSKRTKSKIQREKYLTQKLLHENHLKDMTKNMGVIAERMIEAVDNNLRPKSE
For B2, the “-LogP” value came to 1.411.
